Measurements: patent US20220403048A1, “BINDING MOLECULES TO ARGINASE II [ARG2]” (Cancer Research Technology Limited, priority 2019, published 2022)
Numbering of substitutions follows the chain as printed.

B1: C0021061: anti-ARG2 antibody, first generation lead, VH SEQ ID NO: 62, VL SEQ ID NO: 67 (antibody, listed as Homo sapiens, V domains shown)
VH: EVQLLESGGGLVQPGGSLRLSCAASGFTFSSYAMSWVRQAPGKGLEWVSAKPTDAGSTYYADSVKGRFTISRDNSKNTLYLQMNSLRAEDTAVYYCARLRADLGLYMDLWGRGTLVTVSS
VL: QSVLTQPPSVSAAPGQKVTISCSGSSSNIGNHYVSWYQQLPGTAPKLLIYNTVYPKSGIPDRFSGSKSGTSATLGITGLQTGDEADYYCGTWDSSLSALVFGGGTKLTVL
modifications: C0021061
B2: C0021158: anti-ARG2 antibody, second generation lead, VH SEQ ID NO: 272, VL SEQ ID NO: 277 (antibody, listed as Homo sapiens, V domains shown)
VH: EVQLLESGGGLVQPGGSLRLSCAASGFTFRYEVAAWVRQAPGKGLEWVSAISGPIPKGYYADSVKGRFTISRDNSKNTLYLQMNSLRAEDTAVYYCARLRADLGLYMDLWGRGTLVTVPS
VL: QSVLTQPPSVSAAPGQKVTISCSGSSSNIGNHYVSWYQQLPGTAPKLLIYDNSERTAGVPDRFSGSKSGTSATLGITGLQTGDEADYYCGTWDELTSNLVFGGGTKLTVL
modifications: C0021158
B3: C0021181: anti-ARG2 antibody, VH SEQ ID NO: 342, VL SEQ ID NO: 347 (antibody, listed as Homo sapiens, V domains shown)
VH: EVQLLESGGGLVRPGGSLRLSCAASEFTFRYDYHVWVRQAPGKGLEWVSAISGSGGSTYYADSVKSRFTISRDNSKNTLYLQMNSLRAEDTAVYYCARLRADLGLYMDLWGRGTLVTVSS
VL: B2 VL with T19A, I20V, N31S, A57S, V59I, K106R
modifications: C0021181

Tests used:
[1] = molecular target: T1, ARG2 from CCM of LNCaP, A673 and A2780-Cis (Homo sapiens, UniProt P78540); assay: ELISA binding to ARG2 from CCM of cancer cell lines; conditions: biotinylated IgG at 10 μg/ml as detection antibody, FIG. 18
T1 construct: ARG2 is released into the CCM from LNCaP, A673 and A2780-Cis cell lines; endogenous in cells; host or cells: cell conditioned medium of cancer cell lines (LNCaP, A673, A2780-Cis and others)
T1 sequence (P78540 23-354): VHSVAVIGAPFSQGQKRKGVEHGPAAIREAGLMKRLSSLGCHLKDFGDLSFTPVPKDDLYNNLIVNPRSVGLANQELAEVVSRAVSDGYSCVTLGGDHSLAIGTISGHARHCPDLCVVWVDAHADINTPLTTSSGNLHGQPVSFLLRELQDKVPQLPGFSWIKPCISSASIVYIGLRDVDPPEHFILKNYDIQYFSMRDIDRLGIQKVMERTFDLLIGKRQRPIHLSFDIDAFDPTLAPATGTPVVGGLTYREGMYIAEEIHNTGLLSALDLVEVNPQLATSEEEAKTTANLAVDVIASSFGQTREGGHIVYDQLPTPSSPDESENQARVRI
Text: In this experiment the presence of ARG2 in CCM samples was validated using commercial ARG2 ELISA kit (Cloud-Clone Corp., cat. SED796Hu). Additionally, the protocol was modified to include 1st generation IgG C0021061 and 2nd generation IgG C0021158 as detection antibodies to confirm binding of ARG2 IgG's to ARG2 expressed from cancer cell lines (FIG. 18).
The commercial kit is a 96-well plate pre-coated with anti-ARG2, which uses sandwich ELISA to quantify ARG2 in samples. Standards, biotinylated detection antibody, detection, substrate, and stop reagents are all provided in the kit. […] 100 μl of diluted CCM/media control was used for each well of kit and ELISA was performed following manufacturer's protocol. Each sample was run in duplicate. In parallel, CCM/media control samples were also included to test for binding of C0021061 and C0021158 to ARG2 in CCM samples. […] At the end of the assay, absorbance at 450 nm was read out on PheraStar (BMG). The absorbance values of standards were used to make standard curve and was used to interpolate ARG2 levels in CCM samples (where PAD detection antibody supplied with the kit was used). Similarly, absorbance reads from wells that received C0021061 and C0021158 were used to […] and 2nd generation ARG2 IgGs (C0021061 and C0021158 respectively) bind to ARG2 in CCM samples (FIG. 18).

human ARG2 = molecular target: T2, human ARG2 (Homo sapiens, UniProt P78540); assay: X-ray co-crystal structures of ARG2-Fab complexes, buried surface area of epitope residues; conditions: total of interface residues
T2 construct: made in house
T2 sequence (P78540 with tags, fused parts or gaps): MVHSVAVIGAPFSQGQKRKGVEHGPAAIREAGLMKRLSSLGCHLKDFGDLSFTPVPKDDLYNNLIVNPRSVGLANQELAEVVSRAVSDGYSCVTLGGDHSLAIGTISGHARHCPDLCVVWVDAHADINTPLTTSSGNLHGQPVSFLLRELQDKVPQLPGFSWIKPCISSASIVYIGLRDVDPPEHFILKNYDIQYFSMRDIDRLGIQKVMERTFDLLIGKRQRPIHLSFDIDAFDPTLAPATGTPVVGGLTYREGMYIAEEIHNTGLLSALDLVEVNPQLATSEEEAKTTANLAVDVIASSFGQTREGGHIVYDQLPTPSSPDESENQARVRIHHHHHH
Description: The construct used for crystal trials was ARG2 (23-354) containing a C-terminal Gly3 linker and His10-tag (ARG2+C0020187, SEQ ID NO: 355: huARG2-His10) or a simple C-terminal His6-tag (ARG2+C0021181 and ARG2+C0021158, SEQ ID NO: 357: huARG2-His6). Crystals suitable for structure determination were obtained using the sitting drop methodology. For ARG2+C0020187, 0.2 μl of complex solution (2.0 mg/ml, ARG2:Fab=3:1, purified by gel filtration) were mixed with 0.1 μl of crystallisation solution containing 2 M (NH4)2SO4. Round, disc-shaped crystals (60×60×20 μm) appeared after 2 days. For ARG2+C0021181, 0.5 μl of complex solution (6.3 mg/ml) were mixed with 0.5 μl of a crystallisation solution containing 100 mM MMT (malic acid:MES:tris=1:2:2) pH 5.0, 20% glycerol, 10% PEG4000, 15 mM NaNO3, 15 mM Na2HPO4, 15 mM (NH4)2SO4. Hexagonal disc-shaped crystals (100×100×20 μm) appeared after 2 days and reached their final size after a week. For ARG2+C0021158, 0.25 μl of complex solution (7.0 mg/ml, containing 20% diluted microseeds of an ARG2+C0021181 crystal) were mixed with 0.25 μl of a crystallisation solution containing 2 M (NH4)2SO4. Crystals of irregular shape (60×60×60 μm) appeared after 2 days. For the ARG2+C0020187 and ARG2+C0021158 crystals, 3 M (NH4)2SO4 and 5% glycerol were added for cryo-protection, after which the crystals were cryo-cooled by plunging them into liquid N2. Data sets were collected at DLS, beamline i04-1 (ARG2+C0020187) or BESSY II, HZB, beamline MX-14-1 (ARG2+C0021181 and ARG2+C0021158). The crystals of ARG2+C0020187 diffracted up to 3.25 Å in space group P 65 2 2 with unit cell parameters a=b=138 Å, c=551 Å.
The structures were solved by molecular replacement using Phaser in the CCP4 program suite using the reported structure of ARG2 (PDB-ID 4HZE) and previously solved high-resolution structures of the individual Fabs in the molecular replacement search. For ARG2+C0020187 the asymmetric unit contained three copies each of ARG2 and the Fab, respectively, with the CL and CH domains being present in different orientations, one of pair which was poorly defined in the electron density. For ARG2+C0021181 and ARG2+C0021158 the asymmetric units contained one copy of ARG2 and one copy of the Fab, however for ARG2+C0021181 only the VL and VH domains of the Fab were well defined, with CL and CH domains most likely being present in two orientations (reflected by the increased B factor and overall worse electron density). Automated and manual refinement was then performed by alternating between using REFMAC5 (with twin- and TLS refinement turned on towards finalising the structures for ARG2+C0021181 and ARG2+C0021158) and COOT, respectively. […]

Row | Molecule | binding to ARG2 from CCM of LNCaP, A673 and A2780-Cis (ELISA) [1] | % buried (human ARG2; C0021158 complex) | ASA (solvent accessible surface area) (human ARG2; C0021158 complex) | BSA (buried surface area) (human ARG2; C0021158 complex) | % buried (human ARG2; C0021181 complex)
1 | B1 | binding |  |  |  | 
2 | B2 | binding | 50% | 2012.6 Å^2 | 1000.3 Å^2 | 
3 | B3 |  |  |  |  | 50%
